From publication PMC3163439 (Molecular cell, 2009)

B1: BIM, in vitro translated (natural protein, UniProt O54918 1-196, looked up)
chain: MAKQPSDVSSECDREGGQLQPAERPPQLRPGAPTSLQTEPQGNPDGEGDRCPHGSPQGPLAPPASPGPFATRSPLFIFVRRSSLLSRSSSGYFSFDTDRSPAPMSCDKSTQTPSPPCQAFNHYLSAMASIRQSQEEPEDLRPEIRIAQELRRIGDEFNETYTRRVFANDYREAEDHPQMVILQLLRFIFRLVWRRH
B2: PUMA, in vitro translated (natural protein, UniProt Q99ML1 1-193, looked up)
chain: MARARQEGSSPEPVEGLARDSPRPFPLGRLMPSAVSCSLCEPGLPAAPAAPALLPAAYLCAPTAPPAVTAALGGPRWPGGHRSRPRGPRPDGPQPSLSPAQQHLESPVPSAPEALAGGPTQAAPGVRVEEEEWAREIGAQLRRMADDLNAQYERRRQEEQHRHRPSPWRVMYNLFMGLLPLPRDPGAPEMEPN

What was measured:
BAX, in vitro translated [1] = target: BAX, in vitro translated (UniProt Q07813); assay: co-IP
BAX, in vitro translated [2] = target: BAX, in vitro translated (UniProt Q07813 1-192); assay: co-IP
Sequence of BAX, in vitro translated (UniProt Q07813 1-192) (Q07813 whole entry): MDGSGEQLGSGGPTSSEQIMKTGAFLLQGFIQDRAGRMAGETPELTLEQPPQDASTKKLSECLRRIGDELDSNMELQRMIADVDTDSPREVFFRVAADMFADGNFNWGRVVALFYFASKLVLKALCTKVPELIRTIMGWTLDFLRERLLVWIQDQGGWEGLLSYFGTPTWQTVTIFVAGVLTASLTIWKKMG

Sequence of BAX, in vitro translated (UniProt Q07813) (Q07813 whole entry): as above

Molecule	stoichiometry N (BAX, in vitro translated [1])	stoichiometry N (BAX, in vitro translated [2])
truncated BID (tBID), in vitro translated (domain or fragment)	1	–
B1	–	~1
B2	–	~1
